Source: patent publication US10118965B2, “Compositions and methods related to anti-EGFR antibody drug conjugates” (LegoChem Biosciences, Inc., priority 2015, dated 2018)
Blank lines part the entries; values can stand above or below the molecule they belong to. Where a SMILES comes first, the peptide text is derived from it. [ ]: non-standard residue; d: D form. Dolaproine = CO[C@@H]([C@@H]1CCCN1)[C@@H](C)C(=O)O; Dil = CC[C@H](C)[C@H](NC)[C@@H](CC(=O)O)OC; NMeV = CN[C@H](C(=O)O)C(C)C

Experiments:
[1] = biological target: epidermal growth factor receptor (EGFR) (human) (UniProt P00533); experiment: flow cytometry on A431 cells, 0.5 µg/mL primary antibody, anti-human IgG1-PE secondary
MCF-7 cells = experiment: In vitro cytotoxicity, SRB assay, MCF-7 cells; format: cell-based; conditions: MCF7 (EGFR low), 72 hours
Procedure: (§1) A431 cells, which express high levels of EGFR, and MCF-7 cells, which express low levels of EGFR, were plated at about 1000 cells per well in a 96-well plate in 100 μL of media. HCC-827 cells, which express an intermediate level of EGFR were plated at about 500 cells per well in a 96-well plate in 100 μL of media. The cells were incubated at 37° C. in 5% CO2 for 24 hours. […] The cells were incubated for 72 hours and then fixed for 1 hour at 4° C. after adding 100 μL of ice-cold 10% tricholoracetic acid to each well. Viable cells were counted using SRB dye (Sulphorhodamine, Sigma S 1402) and a Molecular Devices SpectraMax 190 plate reader running Softmax Pro v5, monitoring absorbance at 540 nm (FIG. 12).

HCC-827 cells = experiment: In vitro cytotoxicity, SRB assay, HCC-827 cells; format: cell-based; conditions: HCC-827 (EGFR Intermediate: del E746_A750), 72 hours
Procedure: as §1

A431 cells = experiment: In vitro cytotoxicity, SRB assay, A431 cells; format: cell-based, human; conditions: A431 (EGFR high), 72 hours
Procedure: as §1

[2] = biological target: epidermal growth factor receptor (EGFR) (human) (UniProt P00533); experiment: flow cytometry on A431 cells, 2 µg/mL human IgG1 negative control, anti-human IgG1-PE secondary (cell only: 11.7)
[3] = biological target: epidermal growth factor receptor (EGFR) (human) (UniProt P00533); experiment: flow cytometry on A431 cells, 2 µg/mL human IgG1 negative control, anti-human IgG1-PE secondary (cell only: 11.76)
[4] = biological target: epidermal growth factor receptor (EGFR) (human) (UniProt P00533); experiment: flow cytometry on A431 cells, 2 µg/mL human IgG1 negative control, anti-human IgG1-PE secondary (cell only: 10.84)

Geometric Mean (PE-A fluorescence) [1]: 160
Molecule: Erbitux(LC)-G7CVIM (antibody)

Molecule: CC[C@H](C)[C@@H]([C@@H](CC(=O)N1CCC[C@H]1[C@H](OC)[C@@H](C)C(=O)N[C@@H](Cc1ccccc1)C(=O)OC)OC)N(C)C(=O)[C@@H](NC(=O)[C@@H](NC)C(C)C)C(C)C [MMAF-Ome, monomethyl auristatin F-Ome] (H-[NMeV]V[Dil][Dolaproine]F-OMe)
IC50 (MCF-7 cells): 1.81 nM
IC50 (HCC-827 cells): 1.99 nM
IC50 (A431 cells): 1.11 nM

Geometric Mean (PE-A fluorescence) [2]: 10.9
Median (PE-A fluorescence) [3]: 11.4
Peak Channel (PE-A fluorescence) [4]: 11.4
Molecule: Human IgG1 (antibody)
